B1: Grp1_(63-390) (mouse Grp1, diglycine splice variant, residues 63-390; fully active, lacking the polybasic region) (domain or fragment, UniProt O08967 63-390, looked up)
chain: TTQRNKQIAMGRKKFNMDPKKGIQFLIENDLLQSSPEDVAQFLYKGEGLNKTVIGDYLGERDDFNIKVLQAFVELHEFADLNLVQALRQFLWSFRLPGEAQKIDRMMEAFASRYCLCNPGVFQSTDTCYVLSFAIIMLNTSLHNHNVRDKPTAERFITMNRGINEGGDLPEELLRNLYESIKNEPFKIPEDDGNDLTHTFFNPDREGWLLKLGGRVKTWKRRWFILTDNCLYYFEYTTDKEPRGIIPLENLSIREVEDPRKPNCFELYNPSHKGQVIKACKTEADGRVVEGNHVVYRISAPSPEEKEEWMKSIKASISRDPFYDMLAT
B2: Arf6 Q67L part of the Grp1-Arf6 fusion constructs, loaded with GppNHp (natural protein, human)
chain: GKVLSKIFGNKEMRILMLGLDAAGKTTILYKLKLGQSVTTIPTVGFNVETVTYKNVKFNVWDVGGLDKIRPLWRHYYTGTQGLIFVVDCADRDRIDEARQELHRIINDREMRDAIILIFANKQDLPDAMKPHEIQEKLGLTRIRDRNWYVQPSCATSGDGLYEGLTWLTSNYK

What was measured:
[1] = target: the molecule itself; experiment: SEC-SAXS
[2] = target: T1, Grp1 63-399 E161A part of the Grp1 63-399 E161A Arf6 Q67L fusion (mouse, UniProt O08967 63-399, E161A); experiment: SEC-SAXS
T1 sequence (looked up): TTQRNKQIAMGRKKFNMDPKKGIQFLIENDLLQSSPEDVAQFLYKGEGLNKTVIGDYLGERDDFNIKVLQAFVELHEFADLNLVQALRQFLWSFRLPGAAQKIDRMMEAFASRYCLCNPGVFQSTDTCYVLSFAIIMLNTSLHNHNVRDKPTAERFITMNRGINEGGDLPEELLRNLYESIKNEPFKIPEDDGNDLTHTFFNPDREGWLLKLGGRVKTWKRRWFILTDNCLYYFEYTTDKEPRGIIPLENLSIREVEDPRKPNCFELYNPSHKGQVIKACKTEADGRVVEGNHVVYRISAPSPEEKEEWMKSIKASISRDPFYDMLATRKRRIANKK

Binder	stoichiometry N [1]	binding result [2]
B1	2	
B2		binds

Reference: publication PMC5752578 (Structure (London, England : 1993), 2017)
